Experimental data from patent US20200283537A1 (UNIVERSITY OF VIRGINIA PATENT FOUNDATION, published 2020).

Tests used:
[1] = biological target: Human folate receptor alpha-1 (FOLR1) on ovarian cancer cells (human, UniProt P15328 25-234); test: cell-based or functional assay
[2] = biological target: Human death receptor 5 (DR5/TRAIL-R2) on cancer cells (human, UniProt O14763 56-440); test: cell-based or functional assay
[3] = biological target: T1, Recombinant DR5 (rDR5), extracellular domain of DR5/TRAIL-R2 fused to IgG4-Fc; test: ELISA on coated rDR5-IgG4-Fc (FIG. 12D)
T1 construct: It was biotinylated for BLI; also called rDR5-IgG4; DR5-Fc

Sequence of Human folate receptor alpha-1 (FOLR1) on ovarian cancer cells (P15328 25-234): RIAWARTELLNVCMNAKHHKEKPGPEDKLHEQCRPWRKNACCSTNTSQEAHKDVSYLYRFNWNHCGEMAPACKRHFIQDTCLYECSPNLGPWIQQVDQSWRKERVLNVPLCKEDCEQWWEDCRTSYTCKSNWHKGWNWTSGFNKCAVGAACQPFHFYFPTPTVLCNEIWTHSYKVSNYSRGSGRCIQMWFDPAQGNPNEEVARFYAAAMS

B1: BaCa-1 (Bispecific-Anchored Cytotoxicity-Activator-1; farletuzumab IgG1 with a lexatumumab scFv at the C-terminus of the heavy chain) (bispecific antibody)
heavy: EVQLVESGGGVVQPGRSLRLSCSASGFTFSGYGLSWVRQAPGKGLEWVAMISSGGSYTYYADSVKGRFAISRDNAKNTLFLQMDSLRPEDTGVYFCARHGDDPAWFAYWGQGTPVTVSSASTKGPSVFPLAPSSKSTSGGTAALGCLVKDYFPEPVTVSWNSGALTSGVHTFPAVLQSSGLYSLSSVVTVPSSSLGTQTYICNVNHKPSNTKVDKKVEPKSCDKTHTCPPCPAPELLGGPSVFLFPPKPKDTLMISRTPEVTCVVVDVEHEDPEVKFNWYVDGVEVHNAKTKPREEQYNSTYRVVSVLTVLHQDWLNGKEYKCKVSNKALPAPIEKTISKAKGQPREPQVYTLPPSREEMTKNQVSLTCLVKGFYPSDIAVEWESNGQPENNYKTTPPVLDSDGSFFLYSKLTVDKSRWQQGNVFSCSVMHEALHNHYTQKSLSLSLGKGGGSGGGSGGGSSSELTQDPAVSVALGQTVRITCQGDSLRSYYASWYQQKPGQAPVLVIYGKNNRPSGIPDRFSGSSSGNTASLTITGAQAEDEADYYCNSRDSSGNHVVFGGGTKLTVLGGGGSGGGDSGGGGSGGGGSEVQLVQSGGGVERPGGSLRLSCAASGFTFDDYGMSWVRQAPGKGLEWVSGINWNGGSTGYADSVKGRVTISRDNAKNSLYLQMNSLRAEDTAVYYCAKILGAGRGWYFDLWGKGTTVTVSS
light: DIQLTQSPSSLSASVGDRVTITCSVSSSISSNNLHWYQQKPGKAPKPWIYGTSNLASGVPSRFSGSGSGTDYTFTISSLQPEDIATYYCQQWSSYPYMYTFGQGTKVEIKRTVAAPSVFIFPPSDEQLKSGTASVVCLLNNFYPREAKVQWKVDNALQSGNSQESVTEQDSKDSTYSLSSTLTLSKADYEKHKVYACEVTHQGLSSPVTKSFNRGEC
B1 was tested, and the “cell killing, OVCAR-4 (high FOLR1) over Colo-205 (low FOLR1) cells” value [1] was ~70 fold and the “IC50 of cell viability, Colo-205 cells” value [2] was 3.07 nM.

B2: BaCa antibody labelled with IRDye 800CW (bispecific antibody, human IgG1, kappa)
heavy: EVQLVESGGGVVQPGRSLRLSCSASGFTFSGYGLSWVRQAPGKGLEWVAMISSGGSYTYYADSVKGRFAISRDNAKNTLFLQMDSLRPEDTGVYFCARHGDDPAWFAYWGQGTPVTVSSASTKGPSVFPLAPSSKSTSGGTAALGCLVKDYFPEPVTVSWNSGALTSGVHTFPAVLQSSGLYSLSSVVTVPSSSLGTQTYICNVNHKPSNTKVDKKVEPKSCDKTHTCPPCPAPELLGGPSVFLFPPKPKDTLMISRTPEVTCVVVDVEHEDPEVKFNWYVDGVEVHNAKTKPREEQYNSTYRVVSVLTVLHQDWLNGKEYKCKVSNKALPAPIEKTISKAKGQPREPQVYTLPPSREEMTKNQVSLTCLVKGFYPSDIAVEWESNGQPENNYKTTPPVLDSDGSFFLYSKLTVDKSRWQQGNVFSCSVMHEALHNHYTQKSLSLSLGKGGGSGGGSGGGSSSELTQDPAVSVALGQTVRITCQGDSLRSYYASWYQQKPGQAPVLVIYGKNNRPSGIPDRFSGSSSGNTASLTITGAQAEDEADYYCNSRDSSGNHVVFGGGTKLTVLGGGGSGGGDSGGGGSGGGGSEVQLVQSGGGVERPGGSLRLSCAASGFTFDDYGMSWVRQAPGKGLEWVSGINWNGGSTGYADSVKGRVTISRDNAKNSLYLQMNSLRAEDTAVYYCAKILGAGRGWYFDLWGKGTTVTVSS
light: DIQLTQSPSSLSASVGDRVTITCSVSSSISSNNLHWYQQKPGKAPKPWIYGTSNLASGVPSRFSGSGSGTDYTFTISSLQPEDIATYYCQQWSSYPYMYTFGQGTKVEIKRTVAAPSVFIFPPSDEQLKSGTASVVCLLNNFYPREAKVQWKVDNALQSGNSQESVTEQDSKDSTYSLSSTLTLSKADYEKHKVYACEVTHQGLSSPVTKSFNRGEC
modifications: IRDye 800CW NHS Ester label; sites not stated; IRDye 800CW NHS Ester label (0.04 mg dye per 1 mg of antibodies); sites not stated
notes: Lead BaCa (BaCa-1/HuBaCa), dye-conjugated; also called BaCa-IR800; IR800 labeled BaCa
B2: binds [3].
